The source of these data is US20120237528A1 (Janssen / Centocor, published 2012).

The target in test [1] is T1, recombinant extracellular domain (ECD) of human TF, amino acid 1-219 of the mature chain, C-terminal His6-tag (human, UniProt P13726 33-251).
T1 construct: expressed in a mammalian system; used for ELISA and Biacore; biotinylated by NHS-ester for the Fab ELISA; also called His6-TF-ECD1-219; HumanTF1-219
Briefly: direct ELISA, 50 ng/ml.

For test [2], the target named is T1, recombinant extracellular domain (ECD) …. Briefly: Biacore.
Test [3] addresses Innovin, lyophilized recombinant human tissue factor combined with phospholipids (human, UniProt P13726 33-295, limits assumed). The test is described as follows: cell-based or functional assay.

B1: M23 (antibody, V domains shown)
VH: QVQLVQSGAEVKKPGASVKVSCKASGYTFITYWIEWVRQAPGQRLEWMGDILPGSGSTNYNENFKGRVTITRDTSASTAYMELSSLRSEDTAVYYCARSGYYGNSGFAYWGQGTLVTVSS
VL: DIVMTQSPDSLAVSLGERATINCKSSQSLLSSGNQKNYLTWYQQKPGQPPKLLIYWASTRESGVPDRFSGSGSGTDFTLTISSLQAEDVAVYYCQNDYTYPLTFGQGTKLEIK
notes: complete MAb; FR4 is its own entry; also called H17/L2
Consider B1, for which the binding result in test [1] is reported as “binds”.

B2: M65 (antibody, V domains shown)
VH: QVQLVQSGAEVKKPGSSVKVSCKASGYTFITYWIEWVRQAPGQGLEWMGDILPGSGSTNYAQKFQGRVTITADESTSTAYMELSSLRSEDTAVYYCARSGYYGNSGFAYWGQGTLVTVSS
VL: DIVMTQSPDSLAVSLGERATINCKSSQSLLSSGNQKNYLTWYQQKPGQPPKLLIYWASTRESGVPDRFSGSGSGTDFTLTISSLQAEDVAVYYCQNDYTYPLTFGQGTKLEIK
notes: complete MAb; FR4 is its own entry; also called H23/L2
Take B2: in test [1], the binding result is “binds”.

B3: M44 (antibody, V domains shown)
VH: QVQLVQSGAEVKKPGASVKVSCKASGYTFITYWIEWVRQAPGQGLEWMGDILPGSGSTNYNENFKGRVTMTTDTSTSTAYMELRSLRSDDTAVYYCARSGYYGNSGFAYWGQGTLVTVSS
VL: DIVMTQSPDSLAVSLGERATINCKSSQSLLSSGNQKNYLTWYQQKPGQPPKLLIYWASTRESGVPDRFSGSGSGTDFTLTISSLQAEDVAVYYCQNDYTYPLTFGQGTKLEIK
notes: complete MAb; FR4 is its own entry; also called H20/L2
With B3, the binding result in test [1] is reported as “binds”.

B4: M63 (antibody, V domains shown)
VH: EVQLVQSGAEVKKPGESLRISCKGSGYTFITYWIEWVRQMPGKGLEWMGDILPGSGSTNYSPSFQGHVTISADKSISTAYLQWSSLKASDTAMYYCARSGYYGNSGFAYWGQGTLVTVSS
VL: DIVMTQTPLSSPVTLGQPASISCKSSQSLLSSGNQKNYLTWLQQRPGQPPRLLIYWASTRESGVPDRFSGSGAGTDFTLKISRVEAEDVGVYYCQNDYTYPLTFGQGTKLEIK
notes: complete MAb; FR4 is its own entry; also called H22/L7
For B4, the binding result in test [1] is listed as “binds”.

B5: M38 (antibody, V domains shown)
VH: QVQLVQSGAEVKKPGSSVKVSCKASGYTFITYWIEWVRQAPGQGLEWMGDILPGSGSTNYNENFKGRVTITADESTSTAYMELSSLRSEDTAVYYCARSGYYGNSGFAYWGQGTLVTVSS
VL: DIVMTQTPLSLPVTPGEPASISCKSSQSLLSSGNQKNYLTWYLQKPGQSPQLLIYWASTRESGVPDRFSGSGSGTDFTLKISRVEAEDVGVYYCQNDYTYPLTFGQGTKLEIK
notes: complete MAb; FR4 is its own entry; also called H19/L3
Take B5: the binding result in test [1] is given as “binds”.

B6: M1650 (antibody, V domains shown)
VH: EVQLVQSGAEVKKPGESLRISCKGSGYTFAPYWIEWVRQMPGKGLEWMGDILPGTGFTTYSPSFQGHVTISADKSISTAYLQWSSLKASDTAMYYCARSGYYGNSGFAYWGQGTLVTVSS
VL: DIVMTQTPLSLPVTPGEPASISCKSSQSLLTSYNQRNYLTWYLQKPGQSPQLLIYWASTRESGVPDRFSGSGSGTDFTLKISRVEAEDVGVYYCQNDLTYPLTFGQGTKLEIK
notes: complete MAb; FR4 is its own entry; also called H171/L369
Broadly, the Kd is the equilibrium constant for the complex coming apart. As for B6, the Kd in test [2] was determined as 0.19 nM. Moreover, the “T½ Max (seconds), coagulation of human plasma” value (“T½ Max (seconds), coagulation” for short) in test [3] is 150 s.

B7: M1643 (antibody, V domains shown)
VH: EVQLVQSGAEVKKPGESLRISCKGSGYTFITYWIEWVRQMPGKGLEWMGDILPGSGSTNYSPSFQGHVTISADKSISTAYLQWSSLKASDTAMYYCARSGYYGNSGFAYWGQGTLVTVSS
VL: DIVMTQTPLSLPVTPGEPASISCKSSQSLLYVYGQKNYLTWYLQKPGQSPQLLIYWASTRESGVPDRFSGSGSGTDFTLKISRVEAEDVGVYYCQNDFSWPLTFGQGTKLEIK
notes: complete MAb; FR4 is its own entry; also called H22/L162
Turning to B7, the Kd in test [2] is 0.18 nM. Moreover, the “T½ Max (seconds), coagulation” value in test [3] is 148 s.

B8: M1644 (antibody, V domains shown)
VH: EVQLVQSGAEVKKPGESLRISCKGSGYTFITYWIEWVRQMPGKGLEWMGDILPGSGSTNYSPSFQGHVTISADKSISTAYLQWSSLKASDTAMYYCARSGYYGNSGFAYWGQGTLVTVSS
VL: DIVMTQTPLSLPVTPGEPASISCKSSQSLLFRPTQKNYLTWYLQKPGQSPQLLIYWASTRESGVPDRFSGSGSGTDFTLKISRVEAEDVGVYYCQNDDSYPLTFGQGTKLEIK
notes: complete MAb; FR4 is its own entry; also called H22/L225
Take B8: the Kd in test [2] turned out to be 0.12 nM. The “T½ Max (seconds), coagulation” value in test [3] was found to be 150 s.

B9: M25 (antibody, V domains shown)
VH: QVQLVQSGAEVKKPGASVKVSCKASGYTFITYWIEWVRQAPGQRLEWMGDILPGSGSTNYNENFKGRVTITRDTSASTAYMELSSLRSEDTAVYYCARSGYYGNSGFAYWGQGTLVTVSS
VL: DIVMTQSPLSLPVTPGEPASISCKSSQSLLSSGNQKNYLTWYLQKPGQSPQLLIYWASTRESGVPDRFSGSGSGTDFTLKISRVEAEDVGVYYCQNDYTYPLTFGQGTKLEIK
notes: complete MAb; FR4 is its own entry; also called H17/L4
With B9, the binding result in test [1] is reported as “binds”.

B10: M18 (antibody, V domains shown)
VH: QVQLVQSGAEVKKPGASVKVSCKASGYTFITYWIEWVRQAPGQGLEWMGDILPGSGSTNYNENFKGRVTMTRDTSTSTVYMELSSLRSEDTAVYYCARSGYYGNSGFAYWGQGTLVTVSS
VL: DIVMTQSPLSLPVTPGEPASISCKSSQSLLSSGNQKNYLTWYLQKPGQSPQLLIYWASTRESGVPDRFSGSGSGTDFTLKISRVEAEDVGVYYCQNDYTYPLTFGQGTKLEIK
notes: complete MAb; FR4 is its own entry; also called H16/L4
B10: in test [1], the binding result is “binds”.

B11: M39 (antibody, V domains shown)
VH: QVQLVQSGAEVKKPGSSVKVSCKASGYTFITYWIEWVRQAPGQGLEWMGDILPGSGSTNYNENFKGRVTITADESTSTAYMELSSLRSEDTAVYYCARSGYYGNSGFAYWGQGTLVTVSS
VL: DIVMTQSPLSLPVTPGEPASISCKSSQSLLSSGNQKNYLTWYLQKPGQSPQLLIYWASTRESGVPDRFSGSGSGTDFTLKISRVEAEDVGVYYCQNDYTYPLTFGQGTKLEIK
notes: complete MAb; FR4 is its own entry; also called H19/L4
In the case of B11, the binding result in test [1] is on record as “binds”.

B12: M40 (antibody, V domains shown)
VH: QVQLVQSGAEVKKPGSSVKVSCKASGYTFITYWIEWVRQAPGQGLEWMGDILPGSGSTNYNENFKGRVTITADESTSTAYMELSSLRSEDTAVYYCARSGYYGNSGFAYWGQGTLVTVSS
VL: DIVMTQTPLSLSVTPGQPASISCKSSQSLLSSGNQKNYLTWYLQKPGQPPQLLIYWASTRESGVPDRFSGSGSGTDFTLKISRVEAEDVGVYYCQNDYTYPLTFGQGTKLEIK
notes: complete MAb; FR4 is its own entry; also called H19/L5
Regarding B12, the binding result in test [1] was “binds”.

B13: M17 (antibody, V domains shown)
VH: QVQLVQSGAEVKKPGASVKVSCKASGYTFITYWIEWVRQAPGQGLEWMGDILPGSGSTNYNENFKGRVTMTRDTSTSTVYMELSSLRSEDTAVYYCARSGYYGNSGFAYWGQGTLVTVSS
VL: DIVMTQTPLSLPVTPGEPASISCKSSQSLLSSGNQKNYLTWYLQKPGQSPQLLIYWASTRESGVPDRFSGSGSGTDFTLKISRVEAEDVGVYYCQNDYTYPLTFGQGTKLEIK
notes: complete MAb; FR4 is its own entry; also called H16/L3
On to B13, for which, in test [1], the binding result is “binds”.

B14: M47 (antibody, V domains shown)
VH: QVQLVQSGAEVKKPGASVKVSCKASGYTFITYWIEWVRQAPGQGLEWMGDILPGSGSTNYNENFKGRVTMTTDTSTSTAYMELRSLRSDDTAVYYCARSGYYGNSGFAYWGQGTLVTVSS
VL: DIVMTQTPLSLSVTPGQPASISCKSSQSLLSSGNQKNYLTWYLQKPGQPPQLLIYWASTRESGVPDRFSGSGSGTDFTLKISRVEAEDVGVYYCQNDYTYPLTFGQGTKLEIK
notes: complete MAb; FR4 is its own entry; also called H20/L5
For the molecule B14, in test [1], the binding result is reported as “binds”.

B15: M1645 (antibody, V domains shown)
VH: EVQLVQSGAEVKKPGESLRISCKGSGYTFITYWIEWVRQMPGKGLEWMGDILPGSGSTNYSPSFQGHVTISADKSISTAYLQWSSLKASDTAMYYCARSGYYGNSGFAYWGQGTLVTVSS
VL: DIVMTQTPLSLPVTPGEPASISCKSSQSLLYTSNQKNYLTWYLQKPGQSPQLLIYWASTRESGVPDRFSGSGSGTDFTLKISRVEAEDVGVYYCQNDDYWPLTFGQGTKLEIK
notes: complete MAb; FR4 is its own entry; also called H22/L283
As to B15, in test [2], the Kd was 0.08 nM. Moreover, the “T½ Max (seconds), coagulation” value in test [3] turned out to be 154 s.

B16: M1647 (antibody, V domains shown)
VH: EVQLVQSGAEVKKPGESLRISCKGSGYTFAPYWIEWVRQMPGKGLEWMGDILPGTGFTTYSPSFQGHVTISADKSISTAYLQWSSLKASDTAMYYCARSGYYGNSGFAYWGQGTLVTVSS
VL: DIVMTQTPLSLPVTPGEPASISCKSSQSLLYSGNQRNYLTWYLQKPGQSPQLLIYWASTRSSGVPDRFSGSGSGTDFTLKISRVEAEDVGVYYCQNDDTYPMTFGQGTKLEIK
notes: complete MAb; FR4 is its own entry; also called H171/L320
For the molecule B16, the Kd in test [2] turned out to be 0.1 nM. In test [3], the “T½ Max (seconds), coagulation” value was determined as 160 s.

B17: M1642 (antibody, V domains shown)
VH: EVQLVQSGAEVKKPGESLRISCKGSGYTFITYWIEWVRQMPGKGLEWMGDILPGSGSTNYSPSFQGHVTISADKSISTAYLQWSSLKASDTAMYYCARSGYYGNSGFAYWGQGTLVTVSS
VL: DIVMTQTPLSLPVTPGEPASISCKSSQSLLTSYNQRNYLTWYLQKPGQSPQLLIYWASTRESGVPDRFSGSGSGTDFTLKISRVEAEDVGVYYCQNDLTYPLTFGQGTKLEIK
notes: complete MAb; FR4 is its own entry; also called H22/L369
As to B17, in test [2], the dissociation constant (Kd) worked out at 0.95 nM. Moreover, the “T½ Max (seconds), coagulation” value in test [3] came to 166 s.

B18: M1648 (antibody, V domains shown)
VH: EVQLVQSGAEVKKPGESLRISCKGSGYTFAPYWIEWVRQMPGKGLEWMGDILPGTGFTTYSPSFQGHVTISADKSISTAYLQWSSLKASDTAMYYCARSGYYGNSGFAYWGQGTLVTVSS
VL: DIVMTQTPLSLPVTPGEPASISCKSSQSLLPSWNQSNYLTWYLQKPGQSPQLLIYWASTRESGVPDRFSGSGSGTDFTLKISRVEAEDVGVYYCQNDFTYPLTFGQGTKLEIK
notes: complete MAb; FR4 is its own entry; also called H171/L327
As to B18, the Kd in test [2] was found to be 0.73 nM. Further, in test [3], the “T½ Max (seconds), coagulation” value is 161 s.

B19: M24 (antibody, V domains shown)
VH: QVQLVQSGAEVKKPGASVKVSCKASGYTFITYWIEWVRQAPGQRLEWMGDILPGSGSTNYNENFKGRVTITRDTSASTAYMELSSLRSEDTAVYYCARSGYYGNSGFAYWGQGTLVTVSS
VL: DIVMTQTPLSLPVTPGEPASISCKSSQSLLSSGNQKNYLTWYLQKPGQSPQLLIYWASTRESGVPDRFSGSGSGTDFTLKISRVEAEDVGVYYCQNDYTYPLTFGQGTKLEIK
notes: complete MAb; FR4 is its own entry; also called H17/L3
For the molecule B19, the binding result in test [1] is given as “binds”.
